Measurements published in patent US20040220384A1 (Takeda / Millennium, published 2004).
Each block holds one binder with its values, some of them ahead of it. Non-standard residues stand in square brackets, D forms with d. No end group written: not given here. Trp(6-Br) = N[C@@H](Cc1c[nH]c2cc(Br)ccc12)C(=O)O; dTrp(6-Br) = N[C@H](Cc1c[nH]c2cc(Br)ccc12)C(=O)O

Legend:
bovine GPR8 = target: T1, bovine GPR8 (bovine, UniProt Q8MJV2 1-336); experiment: cell-based or functional assay
T1 sequence: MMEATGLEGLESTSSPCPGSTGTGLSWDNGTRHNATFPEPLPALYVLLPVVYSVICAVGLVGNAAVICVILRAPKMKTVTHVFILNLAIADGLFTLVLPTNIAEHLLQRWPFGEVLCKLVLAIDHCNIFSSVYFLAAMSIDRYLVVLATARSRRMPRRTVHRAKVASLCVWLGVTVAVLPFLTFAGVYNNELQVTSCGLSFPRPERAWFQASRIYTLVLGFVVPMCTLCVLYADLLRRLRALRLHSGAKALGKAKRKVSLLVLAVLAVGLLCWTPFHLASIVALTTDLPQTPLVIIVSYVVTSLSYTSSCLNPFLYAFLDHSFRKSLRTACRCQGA

bovine GPR7 = target: T2, bovine GPR7 (bovine, UniProt Q8MJV3 1-331); experiment: cell-based or functional assay
T2 sequence: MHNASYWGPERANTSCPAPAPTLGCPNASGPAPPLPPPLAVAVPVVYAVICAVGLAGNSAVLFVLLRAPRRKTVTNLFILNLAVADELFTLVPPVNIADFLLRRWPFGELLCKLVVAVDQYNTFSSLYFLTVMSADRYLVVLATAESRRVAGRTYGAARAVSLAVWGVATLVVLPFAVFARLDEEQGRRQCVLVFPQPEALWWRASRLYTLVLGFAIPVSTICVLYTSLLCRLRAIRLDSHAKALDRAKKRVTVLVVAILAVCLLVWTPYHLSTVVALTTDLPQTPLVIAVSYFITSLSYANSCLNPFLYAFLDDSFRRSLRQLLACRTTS

human GPR7 [1] = target: T3, human GPR7 (human, UniProt P48145 1-328); experiment: cell-based or functional assay
T3 sequence: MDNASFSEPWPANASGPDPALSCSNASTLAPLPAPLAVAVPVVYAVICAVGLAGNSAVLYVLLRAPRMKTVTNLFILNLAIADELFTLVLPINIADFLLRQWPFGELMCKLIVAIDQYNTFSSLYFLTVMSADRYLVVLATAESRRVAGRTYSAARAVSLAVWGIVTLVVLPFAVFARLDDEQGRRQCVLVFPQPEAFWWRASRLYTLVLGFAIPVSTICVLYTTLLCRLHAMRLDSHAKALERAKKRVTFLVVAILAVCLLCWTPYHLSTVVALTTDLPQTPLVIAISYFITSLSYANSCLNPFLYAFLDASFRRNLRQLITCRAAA

rat GPR7 (rat TGR26) = target: T4, rat GPR7 (rat TGR26) (rat, UniProt Q56UD9 1-329); experiment: cell-based or functional assay
T4 sequence: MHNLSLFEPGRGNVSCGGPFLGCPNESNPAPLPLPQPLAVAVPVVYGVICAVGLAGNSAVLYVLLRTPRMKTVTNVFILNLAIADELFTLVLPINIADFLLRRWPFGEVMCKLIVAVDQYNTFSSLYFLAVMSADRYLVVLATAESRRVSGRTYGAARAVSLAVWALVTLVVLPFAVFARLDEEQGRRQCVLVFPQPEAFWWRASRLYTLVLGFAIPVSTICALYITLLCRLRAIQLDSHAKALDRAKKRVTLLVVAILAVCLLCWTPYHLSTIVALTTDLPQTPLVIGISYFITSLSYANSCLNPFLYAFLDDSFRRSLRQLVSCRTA

human GPR8 = human GPR8 (human, UniProt P48146 1-333); experiment: cell-based or functional assay
human GPR7 [2] = target: T3, human GPR7; experiment: binding inhibition of iodine-labeled hGPR7L-23 on human GPR7-expressed CHO cell membrane fraction
Protocol: The peptides shown in TABLE 3 are those obtained by diluting the stock solution of […] or 10⁻³ M with the assay buffer in 10⁻⁵ M, 10⁻⁶ M, 10⁻⁷ M, 10⁻⁸ M, 10⁻⁹ M, 10⁻¹⁰ M and 10⁻¹¹ M. As NBS, hGPR7L-23 was prepared in a final concentration of 10⁻⁵ M. The sample solution and NSB prepared were dispensed on a polypropylene-made 96-well plate, the assay buffer was dispensed thereto to make the total volume 50 μl, and 25 μl of the iodine-labeled product dilution was added thereto. After agitation, 25 μl of the solution of human GPR7-expressed CHO cell membrane fraction were dispensed thereto and agitated, followed by incubation at room temperature for 1.5 hour. Using a cell harvester for the 96-well plate, the culture medium was adsorbed onto a filter unit, which had previously been wetted with an assay buffer (50 mM Tris-HCl, pH7.5). After washing 5 times with the assay buffer, the filter unit was thoroughly dried. After 50 μl of a liquid scintillator was dispensed thereto, the radioactivity was counted on a Top Count (Packard) and the data was analyzed in triplet (FIG. 33).

human GPR8, sequence (P48146 whole entry): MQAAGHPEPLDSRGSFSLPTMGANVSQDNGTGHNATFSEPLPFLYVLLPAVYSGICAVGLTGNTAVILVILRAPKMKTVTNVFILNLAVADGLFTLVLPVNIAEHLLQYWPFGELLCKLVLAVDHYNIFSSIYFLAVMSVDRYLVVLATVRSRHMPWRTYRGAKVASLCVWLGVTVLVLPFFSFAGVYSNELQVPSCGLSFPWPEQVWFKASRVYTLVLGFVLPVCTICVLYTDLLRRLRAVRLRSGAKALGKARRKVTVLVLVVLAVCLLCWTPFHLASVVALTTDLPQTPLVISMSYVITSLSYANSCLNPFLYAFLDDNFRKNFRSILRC

B1: Trp1-bovine GPR7L(29) (peptide)
peptide: WYKPTAGQGYYSVGRAAGLLSGFHRSPYA
notes: also called bovine GPR7 ligand B; non-brominated GPR7L
IC50 of intracellular cAMP production suppression (cAMP production inhibition rate) (bovine GPR8): 5.4 nM
IC50 of intracellular cAMP production suppression (cAMP production inhibition rate) (bovine GPR7): 1.2 nM
IC50 of intracellular cAMP production suppression (cAMP production inhibition rate) (human GPR7 [1]): 0.43 nM
IC50 of intracellular cAMP production suppression (cAMP production inhibition rate) (rat GPR7 (rat TGR26)): 0.25 nM
IC50 of intracellular cAMP production suppression (cAMP production inhibition rate) (human GPR8): 8.1 nM
IC50 (human GPR7 [2]): 0.31 nM

B3: LTrp(6Br)1-bovine GPR7L(29) (peptide)
peptide: [Trp(6-Br)]YKPTAGQGYYSVGRAAGLLSGFHRSPYA
IC50 of intracellular cAMP production suppression (cAMP production inhibition rate) (bovine GPR8): 4 nM
IC50 of intracellular cAMP production suppression (cAMP production inhibition rate) (bovine GPR7): 1.9 nM
IC50 of intracellular cAMP production suppression (cAMP production inhibition rate) (human GPR7 [1]): 0.58 nM
IC50 of intracellular cAMP production suppression (cAMP production inhibition rate) (rat GPR7 (rat TGR26)): 0.21 nM
IC50 of intracellular cAMP production suppression (cAMP production inhibition rate) (human GPR8): 9.7 nM
IC50 (human GPR7 [2]): 0.34 nM

B4: DTrp(6Br)1-human GPR7L(29) (peptide)
peptide: [dTrp(6-Br)]YKPAAGHSSYSVGRAAGLLSGLRRSPYA
IC50 of intracellular cAMP production suppression (cAMP production inhibition rate) (bovine GPR8): 424 nM
IC50 of intracellular cAMP production suppression (cAMP production inhibition rate) (bovine GPR7): 360 nM
IC50 of intracellular cAMP production suppression (cAMP production inhibition rate) (human GPR7 [1]): 106 nM
IC50 of intracellular cAMP production suppression (cAMP production inhibition rate) (rat GPR7 (rat TGR26)): 49 nM
IC50 of intracellular cAMP production suppression (cAMP production inhibition rate) (human GPR8): 770 nM
IC50 (human GPR7 [2]): 13 nM

B5: Trp1-rat GPR7L(29) (peptide)
peptide: WYKPAAGSHHYSVGRAAGLLSSFHRFPST
notes: also called rat GPR7 ligand B
IC50 of intracellular cAMP production suppression (cAMP production inhibition rate) (bovine GPR8): 14 nM
IC50 of intracellular cAMP production suppression (cAMP production inhibition rate) (bovine GPR7): 1.2 nM
IC50 of intracellular cAMP production suppression (cAMP production inhibition rate) (human GPR7 [1]): 0.86 nM
IC50 of intracellular cAMP production suppression (cAMP production inhibition rate) (rat GPR7 (rat TGR26)): 0.3 nM
IC50 of intracellular cAMP production suppression (cAMP production inhibition rate) (human GPR8): 8.8 nM
IC50 (human GPR7 [2]): 0.34 nM

B6: Trp1-human GPR7L(23) (peptide)
peptide: WYKPAAGHSSYSVGRAAGLLSGL
IC50 of intracellular cAMP production suppression (cAMP production inhibition rate) (human GPR7 [1]): 0.58 nM

B7: LTrp(6Br)1-human GPR7L(29) (peptide)
peptide: [Trp(6-Br)]YKPAAGHSSYSVGRAAGLLSGLRRSPYA
IC50 of intracellular cAMP production suppression (cAMP production inhibition rate) (bovine GPR8): 51 nM
IC50 of intracellular cAMP production suppression (cAMP production inhibition rate) (bovine GPR7): 1.8 nM
IC50 of intracellular cAMP production suppression (cAMP production inhibition rate) (human GPR7 [1]): 0.44 nM
IC50 of intracellular cAMP production suppression (cAMP production inhibition rate) (rat GPR7 (rat TGR26)): 0.47 nM
IC50 of intracellular cAMP production suppression (cAMP production inhibition rate) (human GPR8): 32 nM
IC50 (human GPR7 [2]): 0.32 nM

Other lines, results leading:

IC50 of intracellular cAMP production suppression (cAMP production inhibition rate) (bovine GPR8): 34 nM
IC50 of intracellular cAMP production suppression (cAMP production inhibition rate) (bovine GPR7): 77 nM
IC50 of intracellular cAMP production suppression (cAMP production inhibition rate) (human GPR7 [1]): 35 nM
IC50 of intracellular cAMP production suppression (cAMP production inhibition rate) (rat GPR7 (rat TGR26)): 2.5 nM
IC50 of intracellular cAMP production suppression (cAMP production inhibition rate) (human GPR8): 198 nM
IC50 (human GPR7 [2]): 6.1 nM
B2: DTrp(6Br)1-bovine GPR7L(29) (peptide)
peptide: [dTrp(6-Br)]YKPTAGQGYYSVGRAAGLLSGFHRSPYA

IC50 of intracellular cAMP production suppression (cAMP production inhibition rate) (bovine GPR8): 3.5 nM
IC50 of intracellular cAMP production suppression (cAMP production inhibition rate) (bovine GPR7): 0.51 nM
IC50 of intracellular cAMP production suppression (cAMP production inhibition rate) (human GPR7 [1]): 0.31 nM
IC50 of intracellular cAMP production suppression (cAMP production inhibition rate) (rat GPR7 (rat TGR26)): 0.18 nM
IC50 of intracellular cAMP production suppression (cAMP production inhibition rate) (human GPR8): 2.8 nM
IC50 (human GPR7 [2]): 0.3 nM
B8: Trp1-rat GPR7L(24) (peptide)
peptide: WYKPAAGSHHYSVGRAAGLLSSFH
notes: also called rat GPR7 ligand A
